Reference: article doi:10.1101/2023.03.03.530962

Assays:
[1] = target: PICK1 (protein interacting with C-kinase 1) (UniProt Q9EP80)
[2] = target: GCN4-GS (yeast)

Sequence of UniProt Q9EP80 (Q9EP80 whole entry): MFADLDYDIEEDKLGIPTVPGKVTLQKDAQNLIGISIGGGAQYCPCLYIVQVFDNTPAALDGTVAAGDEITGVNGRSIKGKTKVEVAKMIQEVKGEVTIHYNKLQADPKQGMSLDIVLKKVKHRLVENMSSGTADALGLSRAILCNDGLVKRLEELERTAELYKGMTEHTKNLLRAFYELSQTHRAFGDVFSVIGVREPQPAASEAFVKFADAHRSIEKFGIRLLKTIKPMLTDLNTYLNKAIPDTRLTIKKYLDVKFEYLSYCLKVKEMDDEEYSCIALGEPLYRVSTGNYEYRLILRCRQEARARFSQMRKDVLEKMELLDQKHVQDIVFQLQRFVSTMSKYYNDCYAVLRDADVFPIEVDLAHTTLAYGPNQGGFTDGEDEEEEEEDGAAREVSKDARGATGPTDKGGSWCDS

| Ki [1] [nM] | stoichiometry N [2] | Substance |
| --- | --- | --- |
| 119 | – | GCN4-HWLKV (peptide) |
| – | 2 | GCN4-GS (peptide) |
| 548 | – | GCN4(7P14P)-HWLKV (peptide) |
